B1: ZNF8 (parent)
chain: KPYTCSVCGKSFSRTTCLFLHLRT
B2: NP_009172.2 (parent)
chain: LPALFTDLYSQEITAEEAREALP

Variants of: B1
Assay: protein stability index of a GFP-peptide fusion (GPS, HEK-293T) (PSI 1-6); higher = more stable
Conditions: c terminus: a fixed tail appended

Protein stability index: each site, then its substitutions
C5: I 3.17 | L 3.52 | Y 2.21 | S 1.56 | P 2.38 | D 1.96 | G 3.6 | W 2.06 | T 3.19 | K 3.15 | A 1.97 | Q 2.29 | M 2.18 | E 3.3 | N 2.43 | F 2.46
G9: L 2.25 | A 2.76 | E 1.71 | N 1.49 | D 1.8 | F 2.12 | H 2.24 | T 1.5 | R 2.2 | Y 1.97 | K 1.87 | Q 1.89 | I 2.92 | M 2.38 | P 1.72 | C 2.43 | S 1.72
K1: L 2.27 | A 2.74 | Q 2.39 | E 2.19 | F 2.19 | V 1.72 | S 1.93 | C 2.08 | I 2.04 | T 1.67 | H 2.1 | G 2.48 | Y 2.24 | W 1.74 | P 1.91 | M 2.22 | N 2.36 | R 2.26 | D 2.46
P2: G 3 | Q 1.87 | V 2.46 | R 1.77 | F 1.48 | I 2.08 | E 2.55 | S 2.72 | L 1.74 | A 2.24 | K 2.05 | M 1.98 | W 2.42 | N 2.14 | Y 2.09 | D 2.33 | C 1.86 | T 2.19 | H 2.5
S6: Q 2.13 | N 2.39 | G 2.48 | C 1.71 | E 1.85 | A 2.4 | T 1.73 | K 2.46 | D 2.28 | F 2.08 | R 2.14 | Y 1.6 | H 2.15 | V 2.45 | M 1.63 | I 1.41 | L 1.93 | P 2.25 | W 1.66
T4: C 2.1 | F 1.9 | Q 1.49 | H 1.8 | D 2.75 | K 2.04 | L 2.19 | W 1.62 | N 1.67 | M 1.83 | V 1.69 | Y 1.63 | R 2.4 | P 1.86 | E 1.77 | I 2.36 | G 2.51 | S 1.48 | A 1.43
S11: L 1.69 | D 1.88 | M 1.76 | F 1.72 | Q 2.21 | I 2.33 | E 2.67 | W 1.71 | T 2.2 | H 3.04 | K 2.92 | A 2.08 | C 1.91 | G 1.51 | Y 2.2 | R 2.12 | N 2.12 | P 1.72 | V 1.84
F12: S 1.87 | D 2.22 | P 1.75 | L 1.83 | Q 1.58 | R 1.62 | N 2.4 | T 1.37 | I 3.27 | C 1.54 | A 1.76 | M 2.45 | G 2.27 | K 2.88 | H 2.35 | E 1.77
V7: D 1.71 | E 2.09 | M 2.29 | Q 3.32 | K 1.75 | R 1.68 | A 2.12 | T 1.91 | C 2.82 | S 2.04 | F 2.8 | L 2.87 | P 2.7 | W 1.85 | G 2.3 | Y 2.3 | I 2.2 | H 1.44 | N 2.15
Y3: W 1.7 | A 1.63 | D 2.07 | Q 2.01 | K 1.91 | L 2.19 | H 2.46 | V 2.1 | R 1.76 | E 1.76 | P 1.69 | N 1.71 | G 1.61 | T 2.4 | I 1.7 | F 1.4 | M 2.3 | C 1.7 | S 1.74
K10: Y 2.21 | Q 2.18 | H 1.86 | F 1.85 | N 2 | P 2.84 | T 2.25 | S 1.52 | I 1.65 | A 1.79 | V 1.83 | D 2.03 | R 1.87 | M 2.88 | G 2.24 | C 1.77 | W 2.83 | E 1.47 | L 1.94
C8: A 2.56 | M 2.19 | L 2.28 | S 3.95 | W 2.5 | D 3.17 | R 3.12 | K 2.45 | E 3.46 | I 2.07 | V 1.97 | F 4.22 | Q 4.56

Variants of: B2
Assay: as above
Conditions: c terminus: native

Protein stability index of substitutions, site by site:
T6: M 3.69 | E 3.68 | D 5.37 | I 2.7 | K 3.32 | P 5.24
Y9: R 5.15 | T 2.74 | M 3.13 | K 5.39 | V 2.21
L22: A 3.54 | M 2.44 | G 2.88 | C 2.65
I13: S 3.26 | D 3.25 | G 3.81 | Q 2.98 | H 2.71
A18: F 2.73 | C 2.91 | G 2.95 | L 2.51
P2: Y 2.85 | F 2.54 | W 2.66
A3: Y 2.62 | M 2.47 | Q 2.22 | T 2.56 | L 2.56 | R 2.43
A15: K 2.56 | E 2.55 | W 2.68 | M 2.51 | S 2.67 | R 2.36 | T 3.05 | F 2.53 | Y 2.72
E16: W 2.48 | T 2.62
L1: S 2.32 | E 2.96 | C 2.5 | Y 2.5 | N 2.86 | F 2.59 | Q 2.5 | D 3.9 | I 2.63
E12: Q 2.69 | M 2.93 | T 3.03
A21: L 2.26 | F 2.31 | M 2.23 | D 3.67 | H 2.29
L4: K 2.77 | R 2.21
L8: F 3.05 | C 3.77 | S 4.05 | H 2.56
F5: W 2.25 | A 5.41 | N 5.52 | L 5.16 | T 5.25 | P 5.3 | R 5.42
D7: Y 2.56 | I 2.49 | T 2.57 | W 2.48
S10: G 3.08 | K 2.48 | V 2.35 | M 2.26 | T 2.38 | W 2.26
E20: R 1.98 | A 2.41 | W 2.42 | G 2.11 | V 2.6 | M 2.39
T14: F 2.48 | H 2.46 | N 2.76 | I 2.25 | R 2.44 | C 2.48
Q11: C 2.95 | H 2.76 | L 2.65 | T 3.21 | I 2.52 | G 3.59 | Y 2.67
E17: P 2.73 | W 2.4 | L 2.16 | C 2.24 | R 1.87 | I 2.4
P23: F 3.94 | V 4.18 | M 2.27 | R 2.83
R19: Y 2.53 | L 2.47 | V 2.8 | G 2.96 | C 2.93 | Q 2.75 | A 2.75
